Test results: patent US20260007728A1, “COMBINATION THERAPIES INVOLVING L-ASPARAGINASE” (Jazz Pharmaceuticals Ireland Ltd., priority 2022, published 2026)

B1: JZP-458: recombinant, unfunctionalized, short acting Erwinia L-asparaginase (SEQ ID NO: 1 tetramer) (protein, listed as Dickeya chrysanthemi)
chain: ADKLPNIVILATGGTIAGSAATGTQTTGYKAGALGVDTLINAVPEVKKLANVKGEQFSNMASENMTGDVVLKLSQRVNELLARDDVDGVVITHGTDTVEESAYFLHLTVKSDKPVVFVAAMRPATAISADGPMNLLEAVRVAGDKQSRGRGVMVVLNDRIGSARYITKTNASTLDTFKANEEGYLGVIIGNRIYYQNRIDKLHTTRSVFDVRGLTSLPKVDILYGYQDDPEYLYDAAIQHGVKGIVYAGMGAGSVSVRGIAGMRKAMEKGVVVIRSTRTGNGIVPPDEELPGLVSDSLNPAHARILLMLALTRTSDPKVIQEYFHTY
modifications: homotetramer

Tests used:
[1] = test system: ASNS expression in Burkitt lymphoma lines; assay: qPCR gene expression after compound treatment; format: cell-based; details: for change of ASNS expression: Burkitt lymphoma lines; for increase of ASNS expression: Burkitt lymphoma lines (BJAB, RAJI, RAMOS), after treatment
Procedure: (§1) Cell Culture: Cell culture medium: RPMI 1640 medium (#2198761, Thermo Fisher) supplemented with 10% fetal calf serum (#S00AZ, BioWest) and 1% pen/strep (#15140-122, Thermo Fisher). At day-1, 900 μl cell suspension was seeded in 24-well plates (#662165, Greiner Bio-One) at a density of 128,000 cells/well. At day 0, 100 μl compound was added in three different concentrations to reach a final concentration of 0.316×IC50, 1×IC50, and 3.16×IC50 (unless indicated otherwise). To the control samples, 100 μl 20 mM HEPES+3.16% DMSO was added instead of compound. When the compound is prepared in HEPES instead of DMSO, 20 mM HEPES without DMSO was added to the cells. The cells were collected at 6 hours, 24 hours and 48 hours after addition of the compound and were transferred to a 96-well deep well plate and centrifuged for 5 min at 340×g. Prior to the collection of the cells microscopic pictures were taken from the untreated (control) cells. After removing the medium, 200 μl RNA protect (#76526, Qiagen) was added to the cell pellet and the cells were stored at −80° C.
(§2) RNA isolation: Total RNA was isolated with the SV96 Total RNA Isolation System kit (#Z3505, Promega) according to manufacturer's instructions. The procedure includes a ‘RNAse free DNAse’ gDNA removal step.
(§3) Determining the RNA concentration: RNA concentrations were determined with the RiboGreen (#R11490, Thermo Fisher) kit according to manufacturer's instructions.
(§4) cDNA synthesis: RNA was reverse transcribed into cDNA using the Quantitect Reverse Transcript Kit (#205313, Qiagen) according to manufacturer's instructions. This procedure includes a second ‘RNAse free DNAse’ gDNA removal step, ensuring the complete removal of gDNA from the samples. For each time point (6 h, 24 h, or 48 h) identical volumes of RNA were used for cDNA synthesis. After synthesis, cDNA is diluted with nuclease free water to obtain approximately similar cDNA concentrations per sample.
(§5) qPCR: 1) 50° C. for 10 min (Uracil-DNA glycosylase ([…]) step to remove all potential traces of amplicon DNA from previous qPCRs); 2) 5 min UDP inactivation/denaturation at 95° C.; 3) 40 cycles of 10s denaturation at 95° C., 20s annealing at 60° C., and 30s extension at 72° C.; and 4) Dissociation curve to determine the melting temperature of the qPCR amplicon.
(§6) qPCR Data Analysis: Cq and Tm raw data values are determined by the BioRad CFX manager software from the PCR machine. For every PCR sample that produced a Cq value the corresponding melting temperature of the PCR amplicon (Tm) was checked to identify samples that generated dual or a specific PCR products. A PCR product is regarded a specific when its Tm is >0.5° C. different from that the Tm of the specific PCR amplicon, in this case the Cq value is removed and not used for further data analysis. Cq values were than normalized by subtracting the (mean) Cq value of the two housekeeping genes (ACTB & RPS18) from the Cq value of the gene of interest. The normalized value is called DCq. The Cq difference between sample and the control (DDCq) was calculated by subtracting DCq control from DCq sample. The fold difference in expression between the control (no compound) and the compound treated sample is than calculated according the 2^-DDCq method.

DLBCL lines = assay: Single-agent sensitivity of lymphoma lines (dose-response, 72 hrs incubation); format: cell-based; details: ABC, GCB, and THL lines; read-out: sensitivity to carfilzomib (range)
Text: Sensitivity to asparaginase and 11 chemotherapeutic agents (carfilzomib, doxorubicin, rapamycin, ibrutinib, cyclophosphamide, prednisolone, metformin, venetoclax, navitoclax, rituximab and vincristine) determined in 8 lymphoma lines, including diffuse large B-cell and Burkitt lymphomas. The investigated lymphoma lines are sensitive to asparagine depletion within the clinically achievable range. Expression of decisive genes (BCL2, BCL6, BCL2L1, MYC, ASNS) determined in 8 lymphoma lines (FIGS. 11 and 12). Increased expression of BCL2 served as marker for resistance of ibrutinib and rapamycin in triple hit lymphoma (FIGS. 11 and 12). Increased expression of ASNS served as marker for resistance of carfilzomib and asparaginase in Burkitt lymphoma (FIGS. 11 and 12). Identified combination agents that enhanced asparaginase activity in vitro include synergy of JZP458 and rituximab, venetoclax and ibrutinib in lymphoma lines (DLBCL) (see FIG. 13, FIG. 15, and FIG. 17). […] In vivo tolerability study of long acting Erwinia Asparaginase.
ABC-DLBCL lines and one of GCB-DLBCL lines are very sensitive to JZP458 in the range of 0.011-7.3 IU/mL. Dose-response curve overlays-72 hrs incubation.

[2] = test system: liquid tumors with NRAS mutations; assay: Sensitivity to L-asparaginase across cell line panel by NRAS status; format: cell-based; details: NRAS mutant vs other lines
Procedure: Sensitivity to L-asparaginase was determined in 140 lines across multiple indications. In silico tandem perturbation effects of Asparagine synthetase and signaling components analyzed (≈700 lines). A subset of lines are ASNS dependent for survival (see McDonald, E. Robert et al. (2017). Project DRIVE: A Compendium of Cancer Dependencies and Synthetic Lethal Relationships Uncovered by Large-Scale, Deep RNAi Screening. Cell 170, 577-592 and https://oncologynibr.shinyapps.io/drive/which is herein incorporated by reference to show expression of ASNS and sensitivity to asparagine depletion). In vitro, most lines are sensitive to asparagine depletion within a clinically achievable range (see FIG. 6).

[3] = test system: BCL2 expression in DLBCL lines (ABC and GCB type); assay: qPCR gene expression after compound treatment; format: cell-based
Procedure: as §1, §2, §3, §4, §5, §6

[4] = Half life of asparaginases; details: in vivo

Molecule	change of ASNS expression [1]	increase of ASNS expression [1] [fold]	IC50 (DLBCL lines) [nM]	sensitivity of liquid tumors with NRAS mutations [2]	change of BCL2 expression [3]	half life t½ [4] [h]
CC(C)C[C@H](NC(=O)[C@H](CCc1ccccc1)NC(=O)CN1CCOCC1)C(=O)N[C@@H](Cc1ccccc1)C(=O)N[C@@H](CC(C)C)C(=O)[C@@]1(C)CO1 [carfilzomib, reference compound]	significantly increase	1.25	1.3 to 7.2			
B1	significantly increase	0.75		more sensitive	decrease	~2.13
